Source: doi:10.1101/2021.10.12.464151
One block for each molecule: values may come before it.

What was measured:
[1] = target: Kip3_(448)^R351A-R353A (yeast); assay: BLI
[2] = target: Kip3_(448) K257A-R262A (yeast); assay: BLI
[3] = target: tubulin purified from bovine brains (αβ-tubulin heterodimer) (bovine)

fold lower affinity (against Kip3 (448)) [1]: 1.8 fold
fold weaker affinity (increased Kd) relative to wild-type Kip3 (448) [2]: 10 fold
Molecule: tubulin purified from bovine brains (αβ-tubulin heterodimer) (complex)

plus-end dwell time on microtubules, against wild type [3]: 2 fold
B1: Kip3FL^K257A-R262A (natural protein)
chain: MNVPETRQSSIVVAIRVRPFTSMEKTRLVNEASGAEANFPGLGDSSLILPMSNNSDSDIDIDAEEGSTRSKRNSLLRRKVIRPEGIRKIVDCVDDRMLIFDPADRNPLNKVSDQVLNSMRARATKATASSINNSNATNKFSSQRRRHGGEIKFVFDKLFDETSSQARVYKETTSPLLDSVLDGFNSTVFAYGATGCGKTYTVSGTPSQPGIIFLAMEELFNKITDLKDEKDFEISLSYLEIYNERIRDLLKPETPSARLVIAEDTQNHIKVANLSYHHPNTVEDVMDLVVQGNINRTTSPTEANEVSSRSHAVLQIHIMQTNKLVDLTSQHTFATLSIIDLAGSERAAATRNRGIRLHEGANINRSLLALGNCINALCLNDGSRSCHIPYRDSKLTRLLKFSLGGNCKTVMIVCISPSSSHYDETLNTLKYANRAKEIKTKIIRNQQSLSRHVGSYLKMITEQKRQIEELREREEKMISLKLTKYKLNKEKIQLAINECVNRVQQTYAGVETYQVAKTLKSLILCKRRFLQMVKLEVDNLILLFEREESTAAEMQPVISNCRMISGQLYNKIHELEMKFDETDTLSSVIHQVHSIDLNKLREMEDWDETYDLVYLESCLNQISELQRNEILVNSSIMTEKLMSDPGLNSRFKFLSKWLMNRTPNIESIIQDLVHIDEEFESFARTFIANPDSNFTNTNINIINTTAADLAVPAETLQRQNFSQKKVKWTSPDLSPSPMIEPQPELEPELHQDQDAIASEVDVSMQDTTFNEQGPSTPSAPTTAVPRRKMRSSLLTHQSLLATARK
modifications: TMR (HALO-TMR ligand) on the HALO tag
